Measured values taken from paper PMC12605379, “Monomeric Glycine oxidase from Azotobacter vinelandii for Glycine biosensing” (World Journal of Microbiology & Biotechnology, 2025).
Each block holds one molecule with its values, some of them ahead of it.

Experiments:
[1] = target: T1, AviGO (glycine oxidase from A. vinelandii) (Azotobacter vinelandii, UniProt C1DPI5); assay: HRP-coupled H2O2 assay (4-aminoantipyrine / N,N-diethylaniline, […] nm), substrate inhibition model; type: biochemical; details: substrate inhibition constant; 100 mM Tris-HCl pH 8.5, free enzyme 20 nM
T1 construct: gene thiO; codon-optimised synthetic gene in pCold I (NdeI/XbaI), expressed in E. coli BL21(DE3); HisTrap then Q-Sepharose, vector His tag, no cleavage told
T1 sequence (C1DPI5 1-363): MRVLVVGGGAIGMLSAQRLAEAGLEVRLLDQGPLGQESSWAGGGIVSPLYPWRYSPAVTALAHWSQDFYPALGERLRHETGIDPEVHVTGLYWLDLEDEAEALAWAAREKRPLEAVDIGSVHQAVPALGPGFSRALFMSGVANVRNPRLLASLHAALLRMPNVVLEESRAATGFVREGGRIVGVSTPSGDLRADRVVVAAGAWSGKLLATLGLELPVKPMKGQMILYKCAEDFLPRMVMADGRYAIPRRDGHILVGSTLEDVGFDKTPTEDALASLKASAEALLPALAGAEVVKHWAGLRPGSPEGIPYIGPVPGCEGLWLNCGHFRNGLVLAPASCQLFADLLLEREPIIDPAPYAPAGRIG

[2] = target: T1, AviGO (glycine oxidase from A. vinelandii); assay: UV-visible spectroscopy of the purified enzyme; type: binding; details: copurified cofactor; occupancy, no affinity constant
Procedure: UV-visible spectroscopy of the purified enzyme on AviGO (glycine oxidase from A. vinelandii) | The FAD/AviGO ratio was calculated from UV-visible spectroscopy of the purified enzyme

purified protein [3] = substrate: NCC(=O)O; assay: purified protein; type: biochemical, Azotobacter vinelandii; details: 100 mM Tris-HCl pH 8.5, free enzyme 20 nM, 0.5-100 mM substrate, abstract prints Km 4.65
purified protein [4] = substrate: CNCC(=O)O; assay: purified protein; type: biochemical, Azotobacter vinelandii; details: 100 mM Tris-HCl pH 8.5, free enzyme 20 nM, 0.5-100 mM substrate

Glycine / ksi [1]: 23.00 ± 3.71 mM
Molecule: NCC(=O)O [glycine]

FAD/AviGO ratio [2]: 0.38
Molecule: Cc1cc2nc3c(=O)[nH]c(=O)nc-3n(C[C@H](O)[C@H](O)[C@H](O)COP(=O)(O)OP(=O)(O)OC[C@H]3O[C@@H](n4cnc5c(N)ncnc54)[C@H](O)[C@@H]3O)c2cc1C [FAD]

B1: AviGO (glycine oxidase from A. vinelandii) (Azotobacter vinelandii DJ) (protein)
chain: MRVLVVGGGAIGMLSAQRLAEAGLEVRLLDQGPLGQESSWAGGGIVSPLYPWRYSPAVTALAHWSQDFYPALGERLRHETGIDPEVHVTGLYWLDLEDEAEALAWAAREKRPLEAVDIGSVHQAVPALGPGFSRALFMSGVANVRNPRLLASLHAALLRMPNVVLEESRAATGFVREGGRIVGVSTPSGDLRADRVVVAAGAWSGKLLATLGLELPVKPMKGQMILYKCAEDFLPRMVMADGRYAIPRRDGHILVGSTLEDVGFDKTPTEDALASLKASAEALLPALAGAEVVKHWAGLRPGSPEGIPYIGPVPGCEGLWLNCGHFRNGLVLAPASCQLFADLLLEREPIIDPAPYAPAGRIG
notes: codon-optimised synthetic gene in pCold I (NdeI/XbaI), expressed in E. coli BL21(DE3); HisTrap then Q-Sepharose, vector His tag, no cleavage told
Km (purified protein [3]): 4.76 ± 0.83 mM
kcat (purified protein [3]): 0.38 ± 0.03 s⁻¹
Km (purified protein [4]): 11.09 ± 0.75 mM
kcat (purified protein [4]): 0.62 ± 0.01 s⁻¹
